# Source: patent US12241094B2, “Phenazine degrading agents and related compositions, methods and systems for interfering with viability of bacteria” (priority 2016, dated 2025)
# Entries after “also recorded” stand apart in the source; their conditions may differ.
# B1: PodA30-162: truncated pyocyanin demethylase encoded by MFORT_14352 of Mycobacterium fortuitum lacking N-terminal helix, SEQ ID NO: 2 (protein, listed as Mycobacterium fortuitum)
# chain: MDGRGGRSTTEPVTMTLDVKNDQVAKHDFGKPGMDVGDMDIFSDILSVDGKQVGYDGGACFFTNVTPDNPMTYCELTIHLDAGEIFARSLTPHTLAPFTMAITGGTGEYANSKGELTVSGVATPDEKYELKLTKAENLYFQ
# Assays:
# [1] = PYO demethylation in the presence of DNA; assay type: biochemical; details: gDNA pellet, 2 μg mL^−1, 3 hours
# Procedure: Biofilm experiments. For all experiments involving inactivated PodA, either the E154A mutant or PodA30-162 that was subjected to a 1 hour treatment at 98° C. was used. To test the ability of PodA30-162 to degrade PYO in the presence of DNA, genomic DNA (gDNA) from P. aeruginosa PA14 was used in modified versions of previously described assays (59). For experiments using DNA pellets, 0.5 mg of gDNA was pelleted in the presence of 300 mM sodium acetate, pH 5.2 and 70% ethanol. Pellets were washed with 70% ethanol and dried. 200 μL of 800 μM PYO was added to the gDNA pellet without mixing and left to sit at room temperature for 6 hours to allow for diffusion of PYO into the gDNA pellet. The pellet was washed once with 70% EtOH, and submerged in a solution containing 10 mM Tris, pH 7.0 and 40% isopropanol. The pellet remained blue, consistent with an association of PYO with DNA. PodA30-162 was added to the isopropanol solution to a final concentration of 2 μg mL^−1 and left to sit for 3 hours to allow for the reaction to proceed. Tubes were imaged before and after PodA30-162 treatment. […] The PYO gDNA mixture was amended with 1 μg mL^−1 PodA30-162 and loss of PYO was monitored on a BioTek Synergy 4 microplate reader (BioTek) plate reader at 690 nm. Standards were included to quantify PYO loss over time. […]
# [2] = system: P. aeruginosa PA14 biofilms; test: Biofilm formation, surface coverage (chambered coverglass, DAPI); assay type: cell-based; details: for biofilm surface coverage: 5 hours
# Procedure: Biofilm experiments. For all experiments involving inactivated PodA, either the E154A mutant or PodA30-162 that was subjected to a 1 hour treatment at 98° C. was used. To test the ability of PodA30-162 to degrade PYO in the presence of DNA, genomic DNA (gDNA) from P. aeruginosa PA14 was used in modified versions of previously described assays (59). For experiments using DNA pellets, 0.5 mg of gDNA was pelleted in the presence of 300 mM sodium acetate, pH 5.2 and 70% ethanol. Pellets were washed with 70% ethanol and dried. 200 μL of 800 μM PYO was added to the gDNA pellet without mixing and left to sit at room temperature for 6 hours to allow for diffusion of PYO into the gDNA pellet. The pellet was washed once with 70% EtOH, and submerged in a solution containing 10 mM Tris, pH 7.0 and 40% isopropanol. The pellet remained blue, consistent with an association of PYO with DNA. PodA30-162 was added to the isopropanol solution to a final concentration of 2 μg mL^−1 and left to sit for 3 hours to allow for the reaction to proceed. Tubes were imaged before and after PodA30-162 treatment. For experiments using solubilized gDNA, a 400 μg mL^−1 solution of gDNA was mixed with PYO and allowed to equilibrate for 6 hours. The PYO gDNA mixture was amended with 1 μg mL^−1 PodA30-162 and loss of PYO was monitored on a BioTek Synergy 4 microplate reader (BioTek) plate reader at 690 nm. Standards were included to quantify PYO loss over time. To assess biofilm formation in the presence of PodA30-162, biofilms were grown in Nunc Lab-Tek chambered coverglass slides (8-well, 0.8 cm^2 area, supplier #155411) using a modified protocol (22). PA14 was inoculated into succinate minimal medium and grown overnight to stationary phase. Cells were resuspended in fresh medium and diluted to a starting OD500 of 0.5 in succinate minimal medium. PodA30-162 (2 μg mL^−1, final concentration) or DNase (20 μg mL^−1) (22) was added and 250 μL was added to each well of the 8-well chambered coverglass. Cultures were grown for 5 hours at 37° C. and 100 rpm (Innova 44 shaking incubator, New Brunswick) in a humidified chamber. After incubation, liquid was removed from each well by drawing with a pipet tip placed in the corner of each well and chambers were washed twice with 400 μL of biofilm wash (Tris buffer, pH 7.6 and 100 mM NaCl) to remove planktonic and loosely bound cells. Attached biomass was stained by adding 450 μL biofilm wash containing 10 μg mL^−1 DAPI (4′,6-diamidino-2-phenylindole) (Santa Cruz Biotechnology). Surface associated biomass was imaged on a Leica TCS SPE confocal microscope with a ACS APO 40×/1.15 oil immersion objective. A 405 nm solid-state laser was used for excitation, and data was collected from 420-500 nm. […]
# P. aeruginosa biofilm = test: Microcolony number and size in 5 hour biofilms on succinate minimal medium; assay type: cell-based; details: 100 μM 1-OHPHZ or 0.5 μg mL-1 PodA
# Excerpt: FIGS. 24A-C show charts and images illustrating results of exemplary experiments showing that PodA and 1-OH-PHZ inhibit the early stages of P. aeruginosa biofilm formation on succinate minimal medium. […] Numbers are averages and SD from 8 biological replicates.
# Pa PA14 biofilm = test: Biofilm biomass by DAPI intensity (Example 7); assay type: cell-based, P. aeruginosa
# Procedure: In this example, to check for an effect of PodA or 1-OH-PHZ on biofilm development, Pa PA14 was grown in 8-well chambered microscope slides designed for biofilm imaging, as previously reported (Das et al. (2015) Sci Rep. 5:8398). Overnight cultures of Pa PA14 were diluted to a starting optical density of 0.25 and grown directly on the slides (volume of 250 μl per chamber). After 5 h incubation at 37° C., planktonic cells were rinsed from the slide and remaining cells were stained with DAPI. Biofilm biomass was quantified by DAPI intensity on a Leica confocal microscope, with LAS X software. Pa PA14 incubated in the presence of 1 μM PodA or 100 μM 1-OHPHZox had ˜50% the biofilm biomass of Pa PA14 alone (FIG. 20A).
molecule,measurement,setting,value
B1,demethylation of PYO associated with precipitated DNA,[1],not protected
same,biofilm surface coverage,"[2]; PodA30-162 2 μg mL^−1, DNase 20 μg mL^−1, vs. PodA-inactive",reduced; also recorded: lower
same,biofilm surface coverage,"[2]; representative images, 82.7 percent in the absence of PodA30-162",43.5%
same,phenazines in biofilm supernatants by HPLC,[2]; after 5 hours of growth,conversion of PYO to 1-OH-PHZ
same,microcolony diameter,P. aeruginosa biofilm,decreases
same,number of microcolonies formed,P. aeruginosa biofilm; vs inactive E154A,decreases
same,biofilm biomass relative to Pa PA14 alone,"Pa PA14 biofilm; 1 μM PodA or 100 μM 1-OHPHZox, 5 h at 37° C",~50%
same,biofilm formation compared to untreated control,"Pa PA14 biofilm; PodA 1 μM, 1-OH-PHZ 100 μM, total DAPI staining",inhibit biofilm formation
